{
  "source": "patent US20060142171A1",
  "about": "“Novel alkaline protease” (priority 2003, published 2006)",
  "key": {"keratin azure": {"system": "keratin azure", "experiment": "Keratinolytic activity", "assay_type": "biochemical", "conditions": "10 mM glycine-NaOH, pH 10 at 50° C.", "experimental": "The hydrolysis of keratin azure (Sigma) by the AL protease was determined according to the modified method of Santos et al. (1996). The reaction mixture (1.5 ml) comprising 0.5 ml of the enzyme solution and 10 mg keratin-azure in 10 mM glycine-NaOH buffer, pH 10 was incubated at 50° C. with constant shaking over 24 h period. The substrate was removed by centrifugation and liberation of the azo dye was measured at 595 nm. The reaction under similar conditions using heat-treated enzyme (by incubation in a boiling water bath for 15 min) was also run as a control. One unit (U) of keratinolytic activity was defined as an increase in the A595nm of 0.01 after 2 h."}, "[1]": {"experiment": "Autolytic degradation by SDS-PAGE", "assay_type": "physicochemical", "conditions": "incubation at 50° C. up to 24 h; not shown", "experimental": "Autolytic degradation of the protease was investigated by SDS-PAGE. The AL protease and Subtilisin Carlsberg were individually incubated in 10 mM Tris-HCl buffer 8 for 24 h at 50° C. Electrophoresis of the enzyme samples taken at different time intervals was performed according to the method of Laemmli, on 12% polyacrylamide gel using a Mini Protean II equipment (Bio-Rad, Richmond, Calif.)."}, "casein": {"system": "casein", "experiment": "Residual protease activity after incubation (pH, temperature, detergent components)", "assay_type": "biochemical", "conditions": "for Enzyme activity after incubation: 90 min at 40° C.; for Residual activity (% of original activity): 1 h at 50° C.", "experimental": "The effect of pH on enzyme stability was studied by incubating the enzyme in different buffers of varying pH values at 50° C. for 1 h and then measuring the residual activity using standard assay procedure. AL protease was very stable in a broad pH range, maintaining over 90% of its original activity between pH 6 and 11, and more than 70% activity at pH 12 (FIG. 8A).\nThe effect of temperature on activity of the two proteases was determined by assaying enzyme activity at different temperatures in glycine-NaOH buffer, pH 10, while the thermal stability was determined by incubating the enzymes at different temperatures followed by measuring the residual activity under standard conditions. These measurements were done both in the presence and absence of 5 mM Ca^2+. […] Its optimum temperature for activity was at 70° C. (FIG. 9A), but when incubated at that temperature the enzyme was inactivated within 1 h (FIG. 10A). […] At temperature values above 50° C. Ca^2+ was absolutely required for the thermal stability of AL-89 protease (FIG. 10B).\nAssay of protease activity was performed according to Ferrero et al. with some modifications. One millilitre of the reaction mixture containing 1% casein in 50 mM glycine-NaOH buffer, pH 10.0 and an appropriate amount of enzyme was incubated at 50° C. for 20 min after which the reaction was terminated by addition of 0.5 ml of trichloroacetic acid and centrifuged. 2.5 ml sodium carbonate was added to 0.5 ml supernatant followed by 0.5 ml of 1 M Folin-Ciocalteau reagent. The reaction mixture was allowed to stand for 30 min at room temperature before measuring the absorbance at 660 nm. One unit of protease activity was defined as the amount of enzyme, which released 1 μg tyrosine per min under standard assay conditions.\nEffect of oxidation by H2O2 on AL protease stability was determined by residual activity measurements because of the temperature-induced decomposition of the peroxide in the calorimeter. […] Residual activity of the AL protease was also studied after incubation with sodium tripolyphosphate (STP; Sigma), sodium-Zeolite 4A (Prayon Tessenderlo, Belgium) and sodium citrate, respectively, representing some of the sequestering agents used in washing detergents. The enzyme activity was unchanged in the presence of 0.01-0.05% (w/v) Zeolite and STP, respectively, after 90 min at 40° C., and more than 80% of the original activity was retained in the presence of 0.5 M citrate (data not shown)."}, "[2]": {"experiment": "Differential scanning calorimetry", "assay_type": "physicochemical", "experimental": "The influence of different parameters including pH, calcium ions, EDTA, and detergent on thermal stability of the AL protease was investigated by differential scanning calorimetry (DSC). Comparative studies were also performed with Subtilisin Carlsberg. Thermal scans of AL protease (0.3 mg protein/ml) and subtilisin (2.5 mg protein/ml in the presence of 1 mM phenyl-methanesulfonyl fluoride (PMSF); Sigma) were performed by increasing temperature from 25° C. to 95° C. at a scan rate of 1° C. per min on a VP-DSC (MicroCal, Northampton, Mass.). The thermograms were corrected by subtracting the base line, obtained from a blank scan of the no-enzyme solution, and normalized for protein concentration. The unfolding transition of the AL protease was fitted to a two-state model. The Tm (temperature at which heat capacity change is a maximum), the calorimetric (or true) enthalpy ΔHcal (peak area), and van't Hoff (or apparent) enthalpy AHVH (calculated from the shape of thermogram) were calculated using the Origin software provided by MicroCal."}, "Isoelectric point": {"experiment": "Isoelectric point", "assay_type": "physicochemical"}, "haemoglobin": {"system": "haemoglobin", "experiment": "Protease activity with haemoglobin as substrate", "assay_type": "biochemical", "conditions": "50 mM glycine-NaOH, pH 10 at 50° C."}, "[3]": {"conditions": "pre-treated with chelex, or with 5 mM Ca^2+ or 10.0 mM EDTA, pH 10.0"}, "[4]": {"conditions": "untreated, 10 mM glycine-NaOH buffer, pH 10.0 (subtilisin with 1 mM PMSF)"}},
  "note": "“And” between values parts separate entries of the source, which are not always exact repeats. Identical values can stand only once.",
  "data": [
    {"molecule": "AL protease: thermostable alkaline, non-Ca2+-dependent serine protease isolated from Nesterenkonia sp. nov. strain AL (DSM 15380); SEQ. ID. NO. 1 (protein, listed as Nesterenkonia sp.) QNPADSPHIGKVFFSTNQGDFVCSANIVASANQSTVATAGHCLHDGNGGQFARNFVFAPAYDYGESEHGVWAAEELVTSAEWANRGDFEHDYAFAVLETKGGTTVQQQVGTASPIAFNQPRGQYYSAYGYPAAAPFNGQELHSCHGTATNDPMGSSTQGIPCNMTGGSSGGPWFLGQGTGGAQNSVNSYGYTFLPDVMFGPYFGSGAQQNYNYAST", "values": [
      {"measurement": "Time of main hydrolysis of keratin-azure", "setting": "keratin azure", "value": "2 to 12", "unit": "h"},
      {"measurement": "Degradation on gel electrophoresis", "setting": "[1]", "value": "unaltered"},
      {"measurement": "Enzyme activity after incubation", "setting": "casein; 0.01-0.05% (w/v) STP, data not shown", "value": "unchanged"},
      {"measurement": "Enzyme activity after incubation", "setting": "casein; 0.01-0.05% (w/v) Zeolite, data not shown", "value": "unchanged"},
      {"measurement": "Original activity retained", "setting": "casein; 0.5 M citrate, data not shown", "value": "more than 80%"},
      {"measurement": "Activity, % of the original", "setting": "casein; 1 M peroxide (H2O2) at 40° C. for 90 min", "value": 60, "unit": "%"},
      {"measurement": "Effect on activity relative to 1 M peroxide", "setting": "casein; 1.6 M peroxide (H2O2), 40° C.", "value": "did not reduce the activity further"},
      {"measurement": "Residual activity (% of original activity)", "setting": "casein; between pH 6 and 11", "value": "over 90%"},
      {"measurement": "Residual activity (% of original activity)", "setting": "casein; pH 12", "value": "more than 70%"},
      {"measurement": "Thermal stability", "setting": "casein; 1 h incubation at 65° C., presence or absence of Ca^2+", "value": "very good stability"},
      {"measurement": "Initial activity retained", "setting": "casein; 90 min incubation with 1% SDS at 40° C., pH 10.0", "value": "About 75%"},
      {"measurement": "Time to inactivation", "setting": "casein; incubated at 70° C.", "value": "≤ 1", "unit": "h"},
      {"measurement": "Decrease in Tm", "setting": "[2]; 1% SDS vs untreated, pH 10.0", "value": 1.4, "unit": "°C"},
      {"measurement": "Decrease in ΔHcal", "setting": "[2]; 1% SDS vs untreated, pH 10.0", "value": 4, "unit": "kcal/mol"},
      {"measurement": "Tm", "setting": "[2]; +0.1% SDS, pH 10.0", "value": "74.5 ± 0.03", "unit": "°C"},
      {"measurement": "ΔHcal", "setting": "[2]; +0.1% SDS, pH 10.0", "value": "158 ± 0.7", "unit": "kcal/mol"},
      {"measurement": "Tm", "setting": "[2]; +0.5% SDS, pH 10.0", "value": "74.1 ± 0.02", "unit": "°C"},
      {"measurement": "ΔHcal", "setting": "[2]; +0.5% SDS, pH 10.0", "value": "158 ± 0.7", "unit": "kcal/mol"},
      {"measurement": "Tm", "setting": "[2]; +1% SDS, pH 10.0", "value": "73.1 ± 0.02", "unit": "°C"},
      {"measurement": "ΔHcal", "setting": "[2]; +1% SDS, pH 10.0", "value": "154 ± 0.6", "unit": "kcal/mol"},
      {"measurement": "Mean ratio of ΔHcal to ΔHvH", "setting": "[2]; at any given pH", "value": "close to unity (±0.05)"},
      {"measurement": "Tm", "setting": "[2]; pH 6", "value": "69.7 °C and 69.7 ± 0.02 °C"},
      {"measurement": "ΔHcal", "setting": "[2]; pH 6", "value": "141 kcal/mol and 141.0 ± 0.5 kcal/mol"},
      {"measurement": "ΔHcal/ΔHvH", "setting": "[2]; pH 6", "value": 0.94},
      {"measurement": "ΔHvH", "setting": "[2]; pH 6", "value": "150.0 ± 1.2", "unit": "kcal/mol"},
      {"measurement": "Tm", "setting": "[2]; pH 7", "value": "73.5 ± 0.02", "unit": "°C"},
      {"measurement": "ΔHcal", "setting": "[2]; pH 7", "value": "149.0 ± 0.5", "unit": "kcal/mol"},
      {"measurement": "ΔHcal/ΔHvH", "setting": "[2]; pH 7", "value": 1.02},
      {"measurement": "ΔHvH", "setting": "[2]; pH 7", "value": "147.0 ± 1.2", "unit": "kcal/mol"},
      {"measurement": "Melting temperature", "setting": "[2]; pH 7-10", "value": "about 74 °C"},
      {"measurement": "Tm", "setting": "[2]; pH 8", "value": "74.3 ± 0.02", "unit": "°C"},
      {"measurement": "ΔHcal", "setting": "[2]; pH 8", "value": "158.0 ± 0.5", "unit": "kcal/mol"},
      {"measurement": "ΔHcal/ΔHvH", "setting": "[2]; pH 8", "value": 0.93},
      {"measurement": "ΔHvH", "setting": "[2]; pH 8", "value": "171.0 ± 1.2", "unit": "kcal/mol"},
      {"measurement": "Tm", "setting": "[2]; pH 9", "value": "74.5 ± 0.02", "unit": "°C"},
      {"measurement": "ΔHcal", "setting": "[2]; pH 9", "value": "157.5 ± 0.5", "unit": "kcal/mol"},
      {"measurement": "ΔHcal/ΔHvH", "setting": "[2]; pH 9", "value": 1.02},
      {"measurement": "ΔHvH", "setting": "[2]; pH 9", "value": "155.0 ± 1.3", "unit": "kcal/mol"},
      {"measurement": "Tm", "setting": "[2]; pH 10", "value": "74.5 ± 0.03", "unit": "°C"},
      {"measurement": "ΔHcal", "setting": "[2]; pH 10", "value": "158 kcal/mol and 158.0 ± 0.5 kcal/mol"},
      {"measurement": "ΔHcal/ΔHvH", "setting": "[2]; pH 10", "value": 0.95},
      {"measurement": "ΔHvH", "setting": "[2]; pH 10", "value": "167.0 ± 1.7", "unit": "kcal/mol"},
      {"measurement": "Tm", "setting": "[2]; pH 11", "value": "72.0 °C and 72.6 ± 0.02 °C"},
      {"measurement": "ΔHcal", "setting": "[2]; pH 11", "value": "142 kcal/mol and 141.5 ± 0.5 kcal/mol"},
      {"measurement": "ΔHcal/ΔHvH", "setting": "[2]; pH 11", "value": 1.01},
      {"measurement": "ΔHvH", "setting": "[2]; pH 11", "value": "141.0 ± 1.3", "unit": "kcal/mol"},
      {"measurement": "Melting temperature, Tm", "setting": "[2]; pH range of 8.0-10.0", "value": "around 74 °C"},
      {"measurement": "Melting profile and denaturation temperature", "setting": "[2]; [3]", "value": "unaltered"},
      {"measurement": "ΔHcal", "setting": "[2]; [3]", "value": "around 158±0.5 kcal/mol"},
      {"measurement": "Tm", "setting": "[2]; [4]", "value": "74.5 ± 0.03", "unit": "°C"},
      {"measurement": "ΔHcal", "setting": "[2]; [4]", "value": "158 ± 0.6", "unit": "kcal/mol"},
      {"measurement": "Isoelectric point", "setting": "Isoelectric point", "value": 4.2},
      {"measurement": "Time to complete hydrolysis of haemoglobin", "setting": "haemoglobin", "value": "≤ 20", "unit": "min"}
    ]}
  ]
}
